{"source": "patent US8697369B2", "about": "“Method for screening a test substance for activating a receptor associated with FGF 21 activity” (National Institute of Advanced Industrial Science and …, priority 2007, dated 2014)", "molecules": {"B1": {"name": "FGF21: fibroblast growth factor 21; mouse-derived protein used in Examples 1-7 and 10-13 (protein)", "chain": "AYPIPDSSPLLQFGGQVRQRYLYTDDDQDTEAHLEIREDGTVVGAAHRSPESLLELKALKPGVIQILGVKASRFLCQQPDGALYGSPHFDPEACSFRELLLEDGYNVYQSEAHGLPLRLPQKDSPNQDATSWGPVRFLPMPGLLHEPQDQAGFLPPEPPDVGSSDPLSMVEPLQGRSPSYAS"}}, "key": {"[1]": {"target": "T1, R1c/betaKlotho-expressing cells (Mus musculus, UniProt P16092+Q99N32)", "T1 construct": "the entire-length cDNA of mouse FGFR1c had been cloned; the entire-length cDNA of mouse betaKlotho was cloned into an animal cell expression vector; expressed in transfected cells; host or cells: BaF3 (mouse pro-B) cells", "T1 sequence (P16092 22-822)": "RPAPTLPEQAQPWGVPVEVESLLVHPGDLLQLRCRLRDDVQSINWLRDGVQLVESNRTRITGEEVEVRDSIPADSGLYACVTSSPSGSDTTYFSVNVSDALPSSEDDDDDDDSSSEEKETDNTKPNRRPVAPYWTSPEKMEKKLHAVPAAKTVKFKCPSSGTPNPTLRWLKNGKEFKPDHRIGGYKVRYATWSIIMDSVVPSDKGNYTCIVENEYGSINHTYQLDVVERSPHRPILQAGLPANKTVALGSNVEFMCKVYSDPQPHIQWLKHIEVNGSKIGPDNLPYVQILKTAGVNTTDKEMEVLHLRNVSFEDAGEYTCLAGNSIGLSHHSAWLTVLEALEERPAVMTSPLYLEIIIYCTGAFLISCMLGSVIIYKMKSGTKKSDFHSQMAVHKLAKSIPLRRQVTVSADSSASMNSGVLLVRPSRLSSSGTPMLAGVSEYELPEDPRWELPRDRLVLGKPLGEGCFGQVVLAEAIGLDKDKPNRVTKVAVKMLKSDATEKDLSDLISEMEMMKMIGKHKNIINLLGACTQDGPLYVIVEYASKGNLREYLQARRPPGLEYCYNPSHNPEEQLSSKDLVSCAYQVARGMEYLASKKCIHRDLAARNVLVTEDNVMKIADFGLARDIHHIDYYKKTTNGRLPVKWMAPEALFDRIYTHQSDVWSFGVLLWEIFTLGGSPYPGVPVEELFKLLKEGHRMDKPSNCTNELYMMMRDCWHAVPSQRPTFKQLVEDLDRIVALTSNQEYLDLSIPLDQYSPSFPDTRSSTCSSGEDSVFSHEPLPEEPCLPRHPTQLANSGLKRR", "T1 sequence (Q99N32 whole entry)": "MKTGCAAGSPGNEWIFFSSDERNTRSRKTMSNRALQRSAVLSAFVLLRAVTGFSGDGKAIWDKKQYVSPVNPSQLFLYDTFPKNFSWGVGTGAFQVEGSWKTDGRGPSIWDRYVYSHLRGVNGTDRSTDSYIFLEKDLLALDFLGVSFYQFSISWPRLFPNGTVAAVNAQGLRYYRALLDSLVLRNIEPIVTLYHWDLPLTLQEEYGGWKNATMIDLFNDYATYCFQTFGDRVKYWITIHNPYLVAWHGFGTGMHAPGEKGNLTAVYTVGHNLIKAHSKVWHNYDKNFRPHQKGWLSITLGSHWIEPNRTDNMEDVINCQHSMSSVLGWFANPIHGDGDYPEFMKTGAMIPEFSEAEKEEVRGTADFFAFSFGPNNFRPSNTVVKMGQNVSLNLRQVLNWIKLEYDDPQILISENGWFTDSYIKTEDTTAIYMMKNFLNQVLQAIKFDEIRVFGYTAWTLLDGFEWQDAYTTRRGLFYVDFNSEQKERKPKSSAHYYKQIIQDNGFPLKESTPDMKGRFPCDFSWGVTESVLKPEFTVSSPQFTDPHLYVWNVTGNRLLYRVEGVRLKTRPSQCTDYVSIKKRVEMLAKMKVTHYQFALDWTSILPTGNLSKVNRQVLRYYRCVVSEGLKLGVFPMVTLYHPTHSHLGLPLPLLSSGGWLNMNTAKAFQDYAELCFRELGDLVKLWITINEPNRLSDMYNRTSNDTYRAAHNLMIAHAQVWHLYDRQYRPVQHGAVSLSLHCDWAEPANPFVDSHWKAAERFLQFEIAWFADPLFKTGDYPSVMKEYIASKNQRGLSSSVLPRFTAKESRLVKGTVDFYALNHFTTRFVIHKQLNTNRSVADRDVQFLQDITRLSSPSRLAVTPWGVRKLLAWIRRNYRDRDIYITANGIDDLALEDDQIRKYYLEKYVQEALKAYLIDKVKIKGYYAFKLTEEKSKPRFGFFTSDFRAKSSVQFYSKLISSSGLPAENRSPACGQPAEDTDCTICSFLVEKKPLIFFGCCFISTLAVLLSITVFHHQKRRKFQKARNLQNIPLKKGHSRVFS", "assay": "Phosphorylation of FRS2 and MAPK (Western blotting) in R1c/betaKlotho-expressing cells", "assay_type": "cell-based", "details": "presence of heparin; 10 minutes stimulation", "description": "(§1) Each FGFR/betaKlotho-expressing cells obtained in Example 6 were stimulated with FGF, and the activated state (phosphorylated state) of a signaling molecule FRS2 (fibroblast growth factor receptor substrate 2) located downstream of FGFR, and that of MAPK (mitogen activated protein kinase; alias: ERK (extracellular signal-regulated kinase; in general, there are two types of ERKs, namely, ERK1 with a molecular weight of 44 kDa and ERK2 with a molecular weight of 42 kDa)), were analyzed. Different types of cells were stimulated with each FGF in the presence of heparin for 10 minutes, and a cell lysate was then prepared. Thereafter, the phosphorylated degree was evaluated by measuring it by a Western blotting method using a commercially available anti-phosphorylation FRS2 antibody or an anti-phosphorylation MAPK antibody."}, "[2]": {"target": "T2, FGFR2c/betaKlotho-expressing BaF3 cells (Mus musculus, UniProt P21803+Q99N32)", "T2 construct": "the entire-length cDNA of mouse betaKlotho was cloned into an animal cell expression vector; expressed in transfected cells; host or cells: BaF3 (mouse pro-B) cells", "T2 sequence (P21803 22-821)": "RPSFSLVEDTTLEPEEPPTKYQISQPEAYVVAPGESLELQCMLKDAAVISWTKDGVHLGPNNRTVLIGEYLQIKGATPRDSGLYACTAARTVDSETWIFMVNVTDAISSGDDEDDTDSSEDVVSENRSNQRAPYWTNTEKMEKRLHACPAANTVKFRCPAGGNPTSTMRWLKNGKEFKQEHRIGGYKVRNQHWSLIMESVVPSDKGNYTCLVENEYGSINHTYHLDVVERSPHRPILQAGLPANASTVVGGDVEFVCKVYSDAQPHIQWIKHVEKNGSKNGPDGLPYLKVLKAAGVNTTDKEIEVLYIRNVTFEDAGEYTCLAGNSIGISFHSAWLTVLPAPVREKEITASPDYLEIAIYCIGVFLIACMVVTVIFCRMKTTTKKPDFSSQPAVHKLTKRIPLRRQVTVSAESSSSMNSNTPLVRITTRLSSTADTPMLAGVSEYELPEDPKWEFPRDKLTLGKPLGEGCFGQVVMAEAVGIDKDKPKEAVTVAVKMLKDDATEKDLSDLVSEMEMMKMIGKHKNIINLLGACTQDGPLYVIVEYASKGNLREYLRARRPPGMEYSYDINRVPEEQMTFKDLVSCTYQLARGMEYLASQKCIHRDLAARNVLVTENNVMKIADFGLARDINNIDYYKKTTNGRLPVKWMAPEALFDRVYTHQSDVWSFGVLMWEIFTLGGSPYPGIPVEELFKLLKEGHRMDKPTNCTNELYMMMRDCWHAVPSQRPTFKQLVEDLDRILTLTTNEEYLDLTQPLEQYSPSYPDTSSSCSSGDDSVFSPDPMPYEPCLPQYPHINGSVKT", "T2 sequence (Q99N32 whole entry)": "as the sequence (Q99N32 whole entry) above", "assay": "DNA synthesis (thymidine incorporation) in FGFR2c/betaKlotho-expressing BaF3 cells", "assay_type": "cell-based", "details": "BaF3 cells expressing FGFR2c and betaKlotho; presence of heparin", "description": "A commonly used measurement method is a cell growth stimulating activity measurement method described in Ornitz, D. M., Xu, J., Colvin, J. S., McEwen, D. G., MacArthur, C. A., Coulier, F., Gao, G. and Goldfarb, M. (1996) Receptor specificity of the fibroblast growth factor family. J Biol Chem, 271, 15292-15297. The summary thereof is as follows. FGF used as a measurement target is added to a culture solution containing a cultured cell having an FGF receptor on the surface thereof, and the obtained mixture is cultured for a certain period of time. Thereafter, a labeled thymidine is added to the culture solution, followed by further culture for a certain period of time. By measuring the amount of the labeled thymidine incorporated into polymeric DNA during the culture, the degree of FGF to activate DNA synthesis is evaluated. (In the present invention as well, this method was adopted when the activity of FGF21 was measured in Examples 4, 5, 6, 8, 9, and 10.)\n(§2) Whether other receptor molecules can also act as such FGF receptors was examined. An expression vector containing each FGFR (FGFR1b, R1c, R2b, R2c, R3b, R3c, and R4) (described in Ornitz, D. M., Xu, J., Colvin, J. S., McEwen, D. G., MacArthur, C. A., Coulier, F., Gao, G. and Goldfarb, M. (1996) Receptor specificity of the fibroblast growth factor family. J Biol Chem, 271, 15292-15297.) was introduced into betaKlotho-expressing BaF3 cells, so as to obtain clones that were resistant to Puromycin and G418, thereby obtaining FGFR/betaKlotho-expressing cells. Such cells were stimulated with FGF21, and the amount of DNA synthesized was measured.\nThe activity of FGF21 to stimulate the DNA synthesis of BaF3 cells that had expressed each FGFR (FGFR1c, R2c, F3c, and R4) as well as betaKlotho was compared with the activity of FGF19, which was evolutionally relative to FGF21. […] The cells were stimulated with FGF21, FGF19, and FGF1 in the presence of heparin, while changing the amounts of FGF21, FGF19, and FGF1, as shown in the figure, and the amount of DNA synthesized was then measured."}, "[3]": {"system": "betaKlotho/FGFR-expressing cells (FGFR1b, R1c, R2b, R2c, R3b, R3c, R4)", "assay": "Thymidine incorporation in betaKlotho/FGFR-expressing BaF3 cells with or without heparin", "assay_type": "cell-based, mouse", "details": "presence versus absence of heparin", "description": "An expression vector of such FGF receptor (FGFR1b, R1c, R2b, F2c, R3b, R3c, and R4) was introduced into BaF3 cells expressing betaKlotho, and each type of betaKlotho/FGFR-expressing cells were stimulated with FGF21 and FGF1 in the presence or absence of heparin, so that the ability of the cells to incorporate thymidine therein was measured. As a result, it was shown that both FGFR1c- and FGFR3c-expressing cells react with FGF21.\nas §2"}, "[4]": {"system": "FGFR4/betaKlotho-expressing cells", "sequence (Q03142 143-366 limits assumed)": "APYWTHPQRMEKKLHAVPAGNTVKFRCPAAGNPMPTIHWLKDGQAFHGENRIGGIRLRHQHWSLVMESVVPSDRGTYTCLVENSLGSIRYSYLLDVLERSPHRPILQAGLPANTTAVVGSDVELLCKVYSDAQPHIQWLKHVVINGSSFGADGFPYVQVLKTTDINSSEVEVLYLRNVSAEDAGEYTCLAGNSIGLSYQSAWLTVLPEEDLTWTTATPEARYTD", "sequence (as listed by the source)": "as the sequence (Q99N32 whole entry) above", "assay": "Phosphorylation of FRS2 and MAPK (Western blotting) in FGFR4/betaKlotho-expressing cells", "assay_type": "cell-based, mouse", "details": "presence of heparin; 10 minutes stimulation", "description": "as §1"}, "[5]": {"system": "undifferentiated 3T3-L1 cells that had not expressed betaKlotho", "assay": "Phosphorylation of FRS2 and MAPK in undifferentiated 3T3-L1 cells not expressing betaKlotho", "assay_type": "cell-based", "details": "10 minutes", "description": "A betaKlotho expression vector produced by the method described in Example 4 and an empty vector used as a control, into which betaKlotho cDNA had not been inserted, were introduced into 3T3-L1 fibroblasts cultured as described in Example 1 by a lipofection method, thereby obtaining Puromycin-resistant clones. These different types of cells were stimulated with FGF21, and 10 minutes after the stimulation, a cell lysate was prepared. The activation of FRS2 and MAPK that were signaling molecules located downstream of FGFR was examined by a Western blotting method."}}}
{"molecule": "FGF1: conventional FGF used as a control", "values": [{"measurement": "phosphorylation of FRS2 and MAPK", "setting": "[1]", "value": "significantly increase the phosphorylation"}, {"measurement": "DNA synthesis (thymidine incorporated into the cells)", "setting": "[2]", "value": "reacts with all of the receptors"}, {"measurement": "influence of heparin on stimulus transmission activity (thymidine incorporation)", "setting": "[3]", "value": "sharply increased in the presence of heparin"}, {"measurement": "phosphorylation of FRS2 and MAPK", "setting": "[4]", "value": "significantly increase the phosphorylation"}]}
{"molecule": "B1", "values": [{"measurement": "phosphorylation of FRS2 and MAPK", "setting": "[1]", "value": "increases the phosphorylation"}, {"measurement": "DNA synthesis (thymidine incorporated into the cells)", "setting": "[2]", "value": "slightly react with FGFR2c"}, {"measurement": "influence of heparin on stimulus transmission activity (thymidine incorporation)", "setting": "[3]", "value": "does not significantly influence"}, {"measurement": "phosphorylation of FRS2 and MAPK", "setting": "[4]", "value": "only in FGFR1c/betaKlotho-expressing cells and FGFR3c/betaKlotho-expressing cells"}, {"measurement": "phosphorylated state of FRS2 and MAPK", "setting": "[5]", "value": "do not change"}]}
